According to patent US20150368329A1 (ONCOMED PHARMACEUTICALS, published 2015):
Positions count from the first letter of the chain named.

How the values were obtained:
[1] = biological target: recombinant mouse VEGF165 (mouse) (UniProt Q00731); experiment: SPR (Biacore 2000); biotinylated VEGF165 on streptavidin chip, antibody injected 100-0.78 nM
biotin-DLL4-hFc = biological target: T1, biotin-DLL4-hFc (UniProt Q9NR61 27-522, limits assumed, biotinylated); experiment: bridging ELISA: the signal needs binding to both coated VEGF and biotin-DLL4-hFc (2 ug/ml); antibody concentration varied
T1 construct: not shown: human Fc ('hFc')
Protocol: (§1) FIG. 5. Bispecific antibody ELISA. Bispecific antibodies 219R45-MB-21M18, 219R45-MB-21R79, 219R45-MB-21R75, and 219R45-MB-21R83 were diluted in blocking buffer (lx PBS, 0.1% gelatin, 0.1% Polysorbate-20, pH 7.4) containing 2 μg/ml biotin-DLL4-hFc. 219R45-MB-21M18 (open circles), 219R45-MB-21R79 (open squares), 219R45-MB-21R75 (open triangles), and 219R45-MB-21R83 (open diamonds) in comparison to a reference anti-VEGF/anti-DLL4 bispecific antibody (solid circles) is shown. The antibodies were serially diluted 3-fold from 500 ng/ml to 0.008 ng/ml. The antibody samples were incubated for 2 hours in blocking buffer containing the biotin-DLL4-hFc. After incubation, the antibody samples were transferred to a VEGF-coated assay plate (100 ul/well) and incubated for 2 hours. Streptavidin-HRP was added to each well and incubated for 1 hr. TMB substrate was added to the wells with a 10 minute color development and the reaction was stopped with 2M sulfuric acid. Absorbance was read at 450-650 nm and the data analyzed using the 4-parameter fit within the Softmax Pro analysis program.
(§2) VEGF (ATGEN, South Korea) was coated onto Nunc maxisorb plates at 2ug/ml (100 μl/well) and incubated overnight at 2-8° C. Bispecific antibodies 219R45-MB-21M18, 219R45-MB-21R79, 219R45-MB-21R75, and 219R45-MB-21RS3 were diluted in blocking buffer (1×PBS, 0.1% gelatin, 0.1% Polysorbate-20, pH 7.4) containing 2 μg/ml biotin-DLL4-hFc. The antibodies were serially diluted 3-fold from 500 ng/ml to 0.008 ng/ml. The antibody samples were incubated for 2 hours in blocking buffer containing the biotin-DLL4-hFc. After incubation, the antibody samples were transferred to the VEGF-coated assay plate (100 μl/well) and incubated for 2 hours. Streptavidin-HRP (Jackson ImmunoResearch, West Grove, Pa.) was added to each well and incubated for 1 hr. TMB substrate was added to the wells with a 10 minute color development and the reaction was stopped with 2M sulfuric acid. Absorbance was read at 450-650 nm and the data analyzed using the 4-parameter fit within the Softmax Pro analysis program (Molecular Devices, Sunnyvale, Calif.).

[2] = biological target: VEGF (ATGEN, South Korea) coated on ELISA plates (UniProt P15692-4 27-191, limits assumed); experiment: as above
Protocol: as §1, §2

T1 sequence (Q9NR61 27-522 limits assumed): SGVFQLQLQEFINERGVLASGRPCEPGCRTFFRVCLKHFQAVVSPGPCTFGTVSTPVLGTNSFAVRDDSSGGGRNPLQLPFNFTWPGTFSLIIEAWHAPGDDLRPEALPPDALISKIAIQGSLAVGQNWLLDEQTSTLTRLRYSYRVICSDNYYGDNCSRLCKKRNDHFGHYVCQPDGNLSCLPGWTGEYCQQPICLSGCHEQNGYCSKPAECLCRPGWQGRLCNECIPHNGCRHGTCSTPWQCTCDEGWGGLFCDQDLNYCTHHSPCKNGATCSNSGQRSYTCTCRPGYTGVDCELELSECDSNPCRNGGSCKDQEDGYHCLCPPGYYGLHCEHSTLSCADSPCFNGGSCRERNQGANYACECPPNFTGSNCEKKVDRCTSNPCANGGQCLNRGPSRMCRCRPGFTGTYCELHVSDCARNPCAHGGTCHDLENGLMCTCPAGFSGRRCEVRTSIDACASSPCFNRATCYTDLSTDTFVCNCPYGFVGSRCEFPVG
Chain of VEGF (ATGEN, South Korea) coated on ELISA plates (P15692 other isoform, or with tags, fused parts or gaps limits assumed): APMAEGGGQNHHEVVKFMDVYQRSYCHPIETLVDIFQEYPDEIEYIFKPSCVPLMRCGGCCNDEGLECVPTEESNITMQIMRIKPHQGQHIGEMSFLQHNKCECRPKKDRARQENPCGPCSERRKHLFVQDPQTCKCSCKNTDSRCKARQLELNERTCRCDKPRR

B1: anti-VEGF/anti-DLL4 bispecific antibody 219R45-MB-21M18 (bispecific antibody, human IgG2)
heavy 1: QVQLVQSGAEVKKPGASVKVSCKASGYTFTNYWMHWVRQAPGQGLEWMGDINPSNGRTSYKEKFKRRVTLSVDKSSSTAYMELSSLRSEDTAVYFCTIHYDDKYYPLMDYWGQGTLVTVSSASTKGPSVFPLAPCSRSTSESTAALGCLVKDYFPEPVTVSWNSGALTSGVHTFPAVLQSSGLYSLSSVVTVPSSNFGTQTYTCNVDHKPSNTKVDKTVERKCCVECPPCPAPPVAGPSVFLFPPKPKDTLMISRTPEVTCVVVDVSHEDPEVQFNWYVDGVEVHNAKTKPREEQFNSTFRVVSVLTVVHQDWLNGKEYKCKVSNKGLPAPIEKTISKTKGQPREPQVYTLPPSREKMTKNQVSLTCLVKGFYPSDIAVEWESNGQPENNYKTTPPMLKSDGSFFLYSKLTVDKSRWQQGNVFSCSVMHEALHNHYTQKSLSLSPGK
heavy 2: QVQLVQSGAEVKKPGASVKISCKASGYSFTAYYIHWVKQAPGQGLEWIGYISSYNGATNYNQKFKGRVTFTTDTSTSTAYMELRSLRSDDTAVYYCARDYDYDVGMDYWGQGTLVTVSSASTKGPSVFPLAPCSRSTSESTAALGCLVKDYFPEPVTVSWNSGALTSGVHTFPAVLQSSGLYSLSSVVTVPSSNFGTQTYTCNVDHKPSNTKVDKTVERKCCVECPPCPAPPVAGPSVFLFPPKPKDTLMISRTPEVTCVVVDVSHEDPEVQFNWYVDGVEVHNAKTKPREEQFNSTFRVVSVLTVVHQDWLNGKEYKCKVSNKGLPAPIEKTISKTKGQPREPQVYTLPPSREEMTKNQVSLTCLVEGFYPSDIAVEWESNGQPENNYKTTPPMLDSDGSFFLYSELTVDKSRWQQGNVFSCSVMHEALHNHYTQKSLSLSPGK
light: DIVMTQSPDSLAVSLGERATISCRASESVDNYGISFMKWFQQKPGQPPKLLIYAASNQGSGVPDRFSGSGSGTDFTLTISSLQAEDVAVYYCQQSKEVPWTFGGGTKVEIKRTVAAPSVIFPPSDEQLKSGTASVVCLLNNFYPREAKVQWKVDNALQSGNSQESVTEQDSKDSTYSLSSTLTLSKADYEKHKVYACEVTHQGLSSPVTKSFNRGEC
[1]
  Kd: 25.5 nM
biotin-DLL4-hFc
  EC50 (read off the curve): ~4 ng/mL
[2]
  EC50 (read off the curve): ~4 ng/mL

B2: anti-VEGF/anti-DLL4 bispecific antibody 219R45-MB-21R79 (bispecific antibody, human IgG2)
heavy 1: B1 heavy 1
heavy 2: B1 heavy 2 with S52A, S53N, G56R
light: B1 light
[1]
  Kd: 12.5 nM

B3: anti-VEGF/anti-DLL4 bispecific antibody 219R45-MB-21R75 (bispecific antibody, human IgG2)
heavy 1: B1 heavy 1
heavy 2: B1 heavy 2 with S52A, S53G, N55K, G56D
light: B1 light
notes: Monovalent/bispecific IgG2 heterodimer
biotin-DLL4-hFc
  EC50 (read off the curve): ~0.7 ng/mL
[2]
  EC50 (read off the curve): ~0.7 ng/mL

B4: anti-VEGF antibody 219R45 (parental, IgG format) (antibody, V domains shown)
VH: QVQLVQSGAEVKKPGASVKVSCKASGYTFTNYWMHWVRQAPGQGLEWMGDINPSNGRTSYKEKFKRRVTLSVDKSSSTAYMELSSLRSEDTAVYFCTIHYDDKYYPLMDYWGQGTLVTVSS
VL: DIVMTQSPDSLAVSLGERATISCRASESVDNYGISFMKWFQQKPGQPPKLLIYAASNQGSGVPDRFSGSGSGTDFTLTISSLQAEDVAVYYCQQSKEVPWTFGGGTKVEIKR
[1]
  Kd: 22.9 nM
